Measured values taken from PMC11555707, “Histone deacetylase 7 activates 6-phosphogluconate dehydrogenase via an enzyme-independent mechanism that involves the N-terminal protein-protein interaction domain” (Biochemical Journal, 2024).

Biological target: the molecule itself
Test: cross-linking; lysates of transfected HEK293 cells (50 mM HEPES, 150 mM NaCl, 0.5% Triton X-100) incubated with 2 mM disuccinimidyl suberate (DSS) for 30 min at room temperature, quenched with 50 mM Tris-HCl; immunoblot with anti-Flag; 6PGD alone or with HDAC7, N-HDAC7, C-HDAC7 or SOX7

B1: 6-phosphogluconate dehydrogenase (6PGD), Flag-tagged (enzyme, mouse, UniProt Q9DCD0 1-483, looked up)
chain: MAQADIALIGLAVMGQNLILNMNDHGFVVCAFNRTVSKVDDFLANEAKGTKVVGAQSLKDMVSKLKKPRRVILLVKAGQAVDDFIEKLVPLLDTGDIIIDGGNSEYRDTTRRCRDLKAKGILFVGSGVSGGEEGARYGPSLMPGGNKEAWPHIKAIFQAIAAKVGTGEPCCDWVGDEGAGHFVKMVHNGIEYGDMQLICEAYHLMKDVLGMRHEEMAQAFEEWNKTELDSFLIEITANILKYRDTDGKELLPKIRDSAGQKGTGKWTAISALEYGMPVTLIGEAVFARCLSSLKEERVQASQKLKGPKVVQLEGSKKSFLEDIRKALYASKIISYAQGFMLLRQAATEFGWTLNYGGIALMWRGGCIIRSVFLGKIKDAFERNPELQNLLLDDFFKSAVDNCQDSWRRVISTGVQAGIPMPCFTTALSFYDGYRHEMLPANLIQAQRDYFGAHTYELLTKPGEFIHTNWTGHGGSVSSSSYNA
notes: mouse 6-phosphogluconate dehydrogenase (6PGD); A shorter ~40 kDa form (6PGD-s), also detected by anti-Flag, arises in the same cells; also called full-length 6PGD; source: HEK293, transfected (pCMV-based construct), in lysate
In the case of B1, the “stoichiometry N” value is reported as 2.
